Patent publication US20200316195A1 (OSSIANIX, published 2020)
Blank lines part the entries; values can stand above or below the binder they belong to.

What was measured:
[1] = molecular target: T1, recombinant mouse transferrin receptor 1 (rmTfR-1) (mouse, UniProt Q62351 89-763); assay: ELISA, purified VNAR monomer on plate-adsorbed rmTfR-1, HRP anti-FLAG [panel MOUSE TfR BINDING]
T1 construct: extracellular domain; also called mouse TfR-1
Protocol: (§1) VNARs were purified from 500 mL bacterial cultures which were grown in auto-induction medium (Novagen) and periplasmic fractions were extracted by osmotic shock by resuspending bacteria in TES buffer (50 mM Tris, 1 mM EDTA, 20% Sucrose) mixed with an equal volume of TES diluted 1:5 in water. After 30 minutes on ice, lysates were clarified by centrifugation and the salt concentrations were adjusted to 500 mM NaCl and 10 mM imidazole in 1×PBS. Periplasmic extracts were then purified with Nickel-Sepharose resin (Qiagen), washed in 1×PBS, 10 mM imidazole, 500 mM NaCl, and then eluted in 1×PBS, 500 mM imidazole, 500 mM NaCl. The purified protein was then buffer-exchanged against PBS and concentrated by centrifugation with Vivaspin 20 filters (Sartorius, MWCO 5000). Endotoxin was removed using VivaPure Q mini column (Sartorius) and the protein was sterile filtered (0.22 μm). After estimating the protein concentration using Bradford reagent (Pierce), the purified protein was stored in frozen aliquots. EC50 binding curves of purified VNAR monomers to immobilized to human or mouse TfR-1 ([…]) were determined by standard protein ELISA an HRP-conjugate anti-FLAG M2 antibody. For pH binding sensitivity testing, purified monomer was bound at pH7 and then washed 3 times for 3 min at either pH5.2 or pH7.2.

[2] = molecular target: T2, recombinant human transferrin receptor 1 (rhTfR-1) (human, UniProt P02786 89-760); assay: ELISA, purified VNAR monomer on plate-adsorbed rhTfR-1, HRP anti-FLAG [panel HUMAN TfR BINDING]
T2 construct: extracellular domain; also called human TfR-1; human TfR1
Protocol: as §1

[3] = molecular target: T1, recombinant mouse transferrin receptor …; assay: ELISA; target adsorbed to plate; HRP anti-human-Fc detection
Protocol: (§2) To test whether the bispecific molecules retained binding to both transferrin receptor and BACE1, the purified proteins were titrated against either hTfR, mTfR, or BACE1 adsorbed to the solid phase of an ELISA plate. Binding was measured with an […] anti-human-Fc antibody (Example 8; Table 3).
(§3) To test whether the bispecific molecules retained binding to both transferrin receptor and BACE1, the purified proteins were titrated against hTfR, mTfR, or BACE1 adsorbed to the solid phase of an ELISA plate. Binding was measured with an HRP-labelled anti-human-Fc antibody.

[4] = molecular target: T2, recombinant human transferrin receptor …; assay: ELISA on plate-coated hTfR1 (Example 15, as in Example 1D) [panel hTfR1]
Protocol: (§4) The binding specificity of H01-Fc and F02-Fc for hTfR-1 and hTfR-2 were determined by an ELISA as described in Example 1D. Anti-TfR-2 was used as a positive control for TfR-2 binding. […] Both H01-Fc […] F02 Fc bound hTfR-1 with high specificity (˜100 nM) and neither bound hTfR-2 (FIG. 18).

[5] = molecular target: T3, human transferrin receptor 2 (hTfR-2) (human, UniProt Q9UP52 105-801, limits assumed); assay: ELISA on plate-coated hTfR2 (Example 15, as in Example 1D) [panel hTfR2]
T3 construct: also called human TfR-2
T3 sequence (looked up): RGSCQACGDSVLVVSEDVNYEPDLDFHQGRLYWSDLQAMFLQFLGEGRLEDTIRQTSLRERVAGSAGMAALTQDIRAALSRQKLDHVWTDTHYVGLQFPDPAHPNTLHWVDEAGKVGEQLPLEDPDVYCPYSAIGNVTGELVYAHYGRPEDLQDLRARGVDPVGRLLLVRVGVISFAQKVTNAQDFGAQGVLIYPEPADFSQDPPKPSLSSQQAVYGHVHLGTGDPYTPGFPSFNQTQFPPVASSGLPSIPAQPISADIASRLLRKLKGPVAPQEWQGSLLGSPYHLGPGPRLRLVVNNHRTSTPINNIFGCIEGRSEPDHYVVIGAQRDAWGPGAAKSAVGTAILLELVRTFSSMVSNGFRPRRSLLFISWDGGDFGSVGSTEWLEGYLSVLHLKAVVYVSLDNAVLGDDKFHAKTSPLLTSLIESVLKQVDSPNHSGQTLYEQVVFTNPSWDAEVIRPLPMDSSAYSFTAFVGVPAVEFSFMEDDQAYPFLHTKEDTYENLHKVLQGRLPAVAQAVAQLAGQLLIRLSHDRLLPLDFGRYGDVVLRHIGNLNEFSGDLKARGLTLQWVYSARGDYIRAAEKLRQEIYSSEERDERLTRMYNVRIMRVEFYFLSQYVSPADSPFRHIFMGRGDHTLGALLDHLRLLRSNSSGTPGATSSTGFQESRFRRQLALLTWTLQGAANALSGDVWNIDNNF
Protocol: as §4

[6] = molecular target: T1, recombinant mouse transferrin receptor …; assay: EC50 on recombinant target, presumably ELISA as in Example 8B
Protocol: as §2, §3

[7] = molecular target: T1, recombinant mouse transferrin receptor …; assay: ELISA, monomer bound at pH 7 to rmTfR-1, washed 3 x 3 min at pH 7.2 or pH 5.2, HRP anti-FLAG [panel VNAR H11 on mTfR-1]
Protocol: as §1

[8] = molecular target: T1, recombinant mouse transferrin receptor …; assay: competitive phage ELISA
[9] = molecular target: T2, recombinant human transferrin receptor …; assay: competitive phage ELISA
[10] = molecular target: T2, recombinant human transferrin receptor …; assay: ELISA, monomer bound at pH 7 to rhTfR-1, washed 3 x 3 min at pH 7.2 or pH 5.2, HRP anti-FLAG [panel VNAR G02 on hTfR-1]
Protocol: as §1

[11] = molecular target: T1, recombinant mouse transferrin receptor …; assay: ELISA, monomer bound at pH 7 to rmTfR-1, washed 3 x 3 min at pH 7.2 or pH 5.2, HRP anti-FLAG [panel VNAR G02 on mTfR-1]
Protocol: as §1

[12] = molecular target: T2, recombinant human transferrin receptor …; assay: ELISA, monomer bound at pH 7 to rhTfR-1, washed 3 x 3 min at pH 7.2 or pH 5.2, HRP anti-FLAG [panel VNAR C11 on hTfR-1]
Protocol: as §1

[13] = molecular target: T1, recombinant mouse transferrin receptor …; assay: ELISA, monomer bound at pH 7 to rmTfR-1, washed 3 x 3 min at pH 7.2 or pH 5.2, HRP anti-FLAG [panel VNAR C11 on mTfR-1]
Protocol: as §1

T2 sequence (P02786 89-760): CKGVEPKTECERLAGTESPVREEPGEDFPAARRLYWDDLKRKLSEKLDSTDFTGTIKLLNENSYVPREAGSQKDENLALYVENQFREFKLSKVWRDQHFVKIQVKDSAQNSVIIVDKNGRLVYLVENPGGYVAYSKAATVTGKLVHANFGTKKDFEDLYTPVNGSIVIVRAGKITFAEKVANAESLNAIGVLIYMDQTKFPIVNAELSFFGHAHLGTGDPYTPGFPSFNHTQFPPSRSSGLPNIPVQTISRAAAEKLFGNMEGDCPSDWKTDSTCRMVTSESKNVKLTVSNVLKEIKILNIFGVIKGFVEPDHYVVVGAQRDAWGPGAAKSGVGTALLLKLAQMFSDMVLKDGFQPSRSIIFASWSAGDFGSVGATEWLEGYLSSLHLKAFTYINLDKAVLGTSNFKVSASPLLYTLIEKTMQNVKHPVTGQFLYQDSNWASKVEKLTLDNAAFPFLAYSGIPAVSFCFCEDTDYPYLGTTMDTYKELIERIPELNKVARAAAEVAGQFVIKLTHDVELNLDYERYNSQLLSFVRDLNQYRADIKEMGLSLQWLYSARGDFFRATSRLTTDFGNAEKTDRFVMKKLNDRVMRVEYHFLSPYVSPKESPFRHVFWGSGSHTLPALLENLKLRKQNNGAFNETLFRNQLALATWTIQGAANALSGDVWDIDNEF
T1 sequence (Q62351 89-763): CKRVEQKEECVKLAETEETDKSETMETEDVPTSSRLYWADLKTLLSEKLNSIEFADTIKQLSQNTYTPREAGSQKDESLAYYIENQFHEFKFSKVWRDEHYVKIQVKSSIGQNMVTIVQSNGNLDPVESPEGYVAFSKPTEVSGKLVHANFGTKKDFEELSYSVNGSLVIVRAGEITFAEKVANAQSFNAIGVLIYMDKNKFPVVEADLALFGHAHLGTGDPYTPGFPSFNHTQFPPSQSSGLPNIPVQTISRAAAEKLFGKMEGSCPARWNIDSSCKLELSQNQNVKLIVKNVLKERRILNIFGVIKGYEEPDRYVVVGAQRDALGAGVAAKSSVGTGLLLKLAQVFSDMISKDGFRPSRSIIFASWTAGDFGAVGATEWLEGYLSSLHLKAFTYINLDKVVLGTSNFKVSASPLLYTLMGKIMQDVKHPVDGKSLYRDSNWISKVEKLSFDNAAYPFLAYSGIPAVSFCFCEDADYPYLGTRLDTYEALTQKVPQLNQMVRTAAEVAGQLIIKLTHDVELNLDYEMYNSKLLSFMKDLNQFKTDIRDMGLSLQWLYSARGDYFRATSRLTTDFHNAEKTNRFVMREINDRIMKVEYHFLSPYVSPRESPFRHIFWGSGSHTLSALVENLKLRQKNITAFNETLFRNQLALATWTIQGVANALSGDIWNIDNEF

binding result [1]: binds | binding result [2]: binds
B1: VNAR A03 (VNAR)
VNAR: ARVDQTPQTITKETGESLTINCVLRDRDCALSSTHWYRKKSGSTNEESIPKGGRYVETVNSGSKSFSLRINDLTVEDSGTYRCNVYSLTANWWCDVYGGGTVVTVNA
notes: Shark VNAR single domain; not shown: FLAG tag of the pOsD2 vector

EC50 [3]: 34.3 nM | EC50 (read off the curve) [4]: ~20 nM | binding result [5]: no binding (tested: 10^-6 M) | EC50 [6]: 34.2 nM
B2: F02-hFc (bivalent F02 VNAR-hFc fusion protein) (Fc fusion)
chain: ARVDQTPQTITKETGESLTINCVLRDNDCTLSSTHWYRKKSGSTNEERISKGGRYVETVNSGSKSFSLRINDLTVEDSGTYRCNVYAMTRNWWCDVYGGGTVVTVNAASGAGGGGS
notes: VNAR fused to the N-terminus of the Fc; bivalent, about 75 kDa; also called F02-Fc; F02 Fc; not shown: human IgG1-Fc region (CH2 and CH3 domains) from a modified pFUSE-hIgG1e3-Fc2 plasmid

EC50 (read off the curve) [4]: ~8 nM | binding result [5]: no binding (tested: 10^-6 M)
B3: H01-Fc (bivalent VNAR-Fc fusion protein) (Fc fusion)
chain: ARVDQTPQTITKETGESLTINCVLRDSNCALSSTYWYRKKSGSTKEESISKGGRYVETVNSGSKSFSLRINDLTVEDSGTYRCNVWHDLVWSVCTTDVYGGGTVVTVNAASGAGGGGS
notes: VNAR fused to the N-terminus of the Fc; bivalent; not shown: human IgG1-Fc region (CH2 and CH3 domains) from a modified pFUSE-hIgG1e3-Fc2 plasmid

binding result [7]: binds | binding result [2]: binds
B4: VNAR H11 (VNAR)
VNAR: ARVDQTPQTITKETGESLTINCVLRDNDCALSSTYWYRKKSGSTNEERMTKGGRYVETVNSGSKSFSLRINDLTVEDSGTYRCNVYGLVDCASGMNWIDVYGGGTVVTVNA
notes: as for B1

binding result [8]: binds | binding result [9]: binds
B5: VNAR A07 (VNAR)
VNAR: ARVDQTPQTITKEEGESLTINCVLRDSSSALASTSWYRKKSGSTREETISKGGRYVETVNSGSKSFSLRINDLTVEDSGTYRCNVYELVEDTSAYEIGVDVYGDGTAVTVNA
notes: Shark VNAR single domain; also called clone A07; not shown: FLAG tag of the pOsD2 vector

binding result [10]: binds | binding result [11]: binds
B6: VNAR G02 (VNAR)
VNAR: ARVDQTPQTITKETGESLTINCVLRDRDCALSSTHWYRKKSGSTNEESISKGGRYVETVDSGSKSFSLRINDLTVEDSGTYRCNVYQSPVGRRWWCDVYGGGTVVTVNA
notes: as for B1

binding result [8]: binds | binding result [9]: binds
B7: VNAR C02 (VNAR)
VNAR: ARVDQTPQTITKETGESLTINCVLRDNDCALSSTYWYRKKSGSTNEESISKGGRYVETVNSGSKSFSLRINDLTVEDSGTYRCNVYQPPSTESLYWCDVYGGGTAVTVNA
notes: as for B1

binding result [12]: binds | binding result [13]: binds
B8: VNAR C11 (VNAR)
VNAR: ARVDQTPQTITKETGESLTINCVLRDKDCALSSTSWYRKKSGSTNEESISKGGRYVETVNSGSKSFSLRINDLTVEDSGTYRCNVYARPRPDNLNWCDVYGGGTAVTVNA
notes: as for B1

binding result [8]: binds
B9: VNAR H01 (VNAR)
VNAR: ARVDQTPQTITKETGESLTINCVLRDSNCALSSTYWYRKKSGSTKEESISKGGRYVETVNSGSKSFSLRINDLTVEDSGTYRCNVWHDLVWSVCTTDVYGGGTVVTVNA
notes: as for B1
